Results from publication PMC10993888.

Assays:
[1] = target: SARS-CoV-2 spike S1 subunit (SARS-CoV-2, UniProt P0DTC2 16-685); assay: SPR; settings: protein: commercial
[2] = target: MERS-CoV RBD (MERS-CoV, UniProt K9N5Q8 367-606); settings: protein: commercial; label: 3'-biotin-TEG (SPR)
[3] = target: SARS-CoV-1 RBD (SARS-CoV-1, UniProt P59594 306-527); settings: protein: commercial; label: 3'-biotin-TEG (SPR)

Row | Binder | binding result [1] | Kd [2] | Kd [3]
1 | GGGTGAATCTATGGGGTGGGCAGGGG (XNA) [SPA1-M12] | binds |  | 
2 | GGGTGAATCTATGGGGTGGGCAGGGG (XNA) [SPA1-M13] |  | 4 nM | 8.7 nM
